Data: the DeepSol protein solubility set

Assay: soluble on expression in E. coli; label from the status in PepcDB or PDB records

| Sequence | soluble on expression in E. coli |
| --- | --- |
| YSLYNPLKEAELQIEATRAEHERNQQAYNQLQATDISRQVQHDSDATRQALQAWQNSQTELARIDSQVQYLSAQLKQTDPLTGILTRAQNLCAAQGYSADICRQVAKAADTNDLTLFETELDTYIERVEMAESELDKARQGGDAQAVETARHAYLNALNRLSRQIHSLKTGVAGIRMPNLAELISRSANTAVSEQAAYNTGRQQAGRRIDRHLTDPQQQNIWLETGTQQTDYHSGTHRPYQQTTNYAHIGIQTGITDRLSVGTILTDERTNNRFDEGVSARNRSNGAHLFVKGENGALFAAADLGYSNSRTRFTDYDGAAVRRHAWDAGINTGIKIDTGINLRPYAGIRINRSNGNRYVLDGAEINSPAQIQTTWHAGIRLDKTVELGQAKLTPAFSSDYYHTRQNSGSALSVNDRTLLQQAAHGTLHTLQIDAGYKGWNAKLHAAYGKDSNTARHKQAGIKIGYNW | not soluble |
| YYHSVIVANLAETAAEKIGANPILARIGAYYHDIGKMKRPHFFTENIRDGKNPHEDITPSLSHLVLNEHVKYGVELARKYRLPLLVEFIIPQHHGTRSQKYFYYKAKQQFEDIPEEEFRYPGPKPQFKEAAIIMLADSVEA | soluble |
